The EC50 is the midpoint of the concentration-response curve. Broadly, the Kd is a measure of binding affinity in units of concentration.

Results on 17 molecules are retold here after US20260167718A1 (Merck Sharp & Dohme, published 2026).

Test [1] deals with T1, Rhesus monkey ILT3 expressed on CHO-K1 cells (rhesus monkey (Macaca mulatta)).
T1 construct: whole, on cells; also called rhILT3; CHO-rhesus ILT3
The test can be described thus: cELISA, CHO rhesus ILT3 cells.

The target in test [2] is T1, Rhesus monkey ILT3 expressed on CHO-K1 …. The test can be described thus: cELISA, CHO rhesus ILT3 cells. On the procedure: (§1) Mouse anti-human ILT3 antibodies were tested for binding to human ILT3, and cross-reactivity to Rhesus monkey ILT3, human ILT5, human ILT7, human ILT8, and human ILT11 expressing CHO-K1 cells using a cell-based ELISA format. CHO-K1 cells were plated in 96-well tissue-culture plates in 50 μL of DMEM/F12, 10% BCS and gentamycin (CHO-K1 media). Cells were plated at either 2×10⁴ cells/well two days prior to the assay or 4×10⁴ cells/well one day prior to the assay. Media was removed from the wells prior to adding the test samples. Purified antibody was serially-diluted in CHO-K1 media and added to the CHO-K1 plates. The samples were incubated at room temperature for 30-60 minutes and plates were washed three times with PBS/05% Tween-20 using the cell wash program on the Biotek EL405x Select CW plate washer. Binding was detected using an HRP-conjugated goat anti-mouse IgG (Southern Biotech cat #1031-05) secondary antibody added at a 1:2000 dilution in CHO-K1 media and incubated at room temperature for 30-60 minutes. Assay plates were washed as above and developed with TMB and stopped with TMB stop solution (KPL cat #50-85-06). The absorbance at 450 nm—620 nm was determined. Mouse IgG1 (MIgG1) served as a control.
This is another data set of the same source.

The target of test [3] is T2, human ILT3 expressed on cells (human, UniProt Q8NHJ6 22-448).
T2 construct: whole, on cells; also called huILT3; LILRB4
The test can be described thus: cELISA, CHO human ILT3 cells.

The target in test [4] is T3, rhesus ILT3-His tagged recombinant protein (rhesus monkey (Macaca mulatta)).
T3 construct: also called ILT3_MM; not shown: His tag
T3 chain: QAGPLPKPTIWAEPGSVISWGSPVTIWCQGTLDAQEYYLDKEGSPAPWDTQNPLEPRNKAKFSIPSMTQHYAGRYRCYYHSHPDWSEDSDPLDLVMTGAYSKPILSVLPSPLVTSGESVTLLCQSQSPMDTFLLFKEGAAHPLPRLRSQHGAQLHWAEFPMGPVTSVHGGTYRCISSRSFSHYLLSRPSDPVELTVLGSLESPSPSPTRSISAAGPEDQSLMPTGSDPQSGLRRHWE
The test can be described thus: SPR (Biacore), rhesus ILT3-His. In short, it runs like this: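 Antibodies captured on anti-human Fc surface, with human or rhesus ILT3-His as analyte in HBS-EP+ running buffer; reference flow cell subtracted, regeneration with 3M MgCl₂. ka and kd obtained from 1:1 Langmuir fits, KD = kd/ka.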

Test [5] deals with T2, human ILT3 expressed on cells. The test can be described thus: cELISA, CHO human ILT3 cells. On the procedure: as §1
This is another data set of the same source.

Test [6] addresses T4, Human ILT3 (LILRB4) extracellular domain with C-terminal His Tag (human, UniProt Q8NHJ6 22-259).
T4 construct: the claims count residues 1-238 as the extracellular domain; also called human ILT3-His; ILT3_H
The test can be described thus: SPR (Biacore), human ILT3-His. Background: In SPR one partner is held on a chip, and binding of the other changes the refractive index at the surface.

The target of test [7] is T4, Human ILT3 (LILRB4) extracellular …. The test can be described thus: SPR (Biacore), human ILT3-His. This is another data set of the same source.
Test [8] concerns the target T3, rhesus ILT3-His tagged recombinant …. Nature of the test: SPR (Biacore), rhesus ILT3-His.
Test [9] addresses T4, Human ILT3 (LILRB4) extracellular …. The test can be described thus: Biacore SPR, column huILT3 KD (nM).
For test [10], the target named is T3, rhesus ILT3-His tagged recombinant …. The test can be described thus: Biacore SPR, column rhILT3 KD (nM).

Substitutions are numbered along the chain they refer to. Names may count otherwise. Where two headings read alike, the source gives them in different places.

B1: Rat anti-ILT3 mAb 24A4 IgG2a/Kappa (antibody, V domains shown)
VH: QVQLKESGPGLVQASETLSLTCTVSGFSLTSYCVNWVRQPSGKGPEWLGRFWYDEGKVYNLTLESRLSISGDTSKNQVFLKMNRLRTDDTGTYYCTRDRDTLGITGWFAYWGQGTLVTVSS
VL: ETVMTQSPTSLSASIGERVTLNCKASQSVGINVDWYQQTPGQSPKLLIYGSANRHTGVPDRFTGSGFGSGFTLTISNVEPEDLGVYYCLQYGSVPYTFGPGTKLELK
notes: Rat IgG2a/Kappa; also called p24A4; LB184.24A4.1A1
As to B1, the EC50 in test [1] is 21.3 µg/mL; in [2] it was 0.0231 µg/mL; in test [3], 21.4 µg/mL; in [5], 0.0214 µg/mL. Moreover, the Kd in [4] was found to be 126 pM; in test [6] it was 20.5 pM; in test [7] it was 21 pM; in [8], 126 pM.

B2: Rat anti-ILT3 mAb 20E4 IgG2a/Kappa (antibody, V domains shown)
VH: QVQLKESGPGLVQASETLSLTCTVSGFSLTSYSVNWVRQPSGKGLEWMGRFWYDGGTAYNSTLESRLSISGDTSKNQVFLKMNSLQTDDTGTYYCTRDRDTMGITGWFAYWGQGTLVTVSP
VL: B1 VL with I31V, G70D, P100A
notes: Rat IgG2a/Kappa; also called p20E4; LB184.20E4.1E1.1D1
As for B2, the EC50 in test [1] was found to be 18 µg/mL; in test [2], 0.018 µg/mL; in [3], 1.99 µg/mL; in [5] it was 0.002 µg/mL. Moreover, the Kd in [4] was determined as 18200 pM; in [6], 6990 pM; in [7] it was 6990 pM; in test [8] it was 18000 pM.

B3: Rat anti-ILT3 mAb 37C8 IgG2a/Kappa (antibody, V domains shown)
VH: B1 VH with L102M
VL: B1 VL
notes: Rat IgG2a/Kappa; also called p37C8; LB184.37C8.1A3.1B1
As to B3, the EC50 in [1] stood at 9.48 µg/mL; in test [2], 0.0095 µg/mL; in [3] it was 7.72 µg/mL; in test [5], 0.0077 µg/mL. For the same molecule, the Kd in test [4] was 145 pM; in test [6], 11.8 pM; in test [7], 12 pM; in [8], 150 pM.

B4: Rat anti-ILT3 mAb 16B1 IgG2a/Kappa (antibody, V domains shown)
VH: B1 VH with S31N, Y53F, V58A, K81R, R84S, T87A, L102V
VL: B1 VL with G70D
notes: Rat IgG2a/Kappa; also called p16B1; LB184.16B1.1D2
For B4, the concentration for a half-maximal effect (EC50) in test [2] turned out to be 0.0679 µg/mL; in test [5], 0.0649 µg/mL. The Kd stood at 259 pM in test [4], 95.7 pM in [6], 96 pM in test [7] and 259 pM in test [8].

B5: Humanized anti-ILT3 mAb ((52B8 VH1 M64V/VL7) L234A L235A D265S) IgG1/Kappa (antibody)
heavy: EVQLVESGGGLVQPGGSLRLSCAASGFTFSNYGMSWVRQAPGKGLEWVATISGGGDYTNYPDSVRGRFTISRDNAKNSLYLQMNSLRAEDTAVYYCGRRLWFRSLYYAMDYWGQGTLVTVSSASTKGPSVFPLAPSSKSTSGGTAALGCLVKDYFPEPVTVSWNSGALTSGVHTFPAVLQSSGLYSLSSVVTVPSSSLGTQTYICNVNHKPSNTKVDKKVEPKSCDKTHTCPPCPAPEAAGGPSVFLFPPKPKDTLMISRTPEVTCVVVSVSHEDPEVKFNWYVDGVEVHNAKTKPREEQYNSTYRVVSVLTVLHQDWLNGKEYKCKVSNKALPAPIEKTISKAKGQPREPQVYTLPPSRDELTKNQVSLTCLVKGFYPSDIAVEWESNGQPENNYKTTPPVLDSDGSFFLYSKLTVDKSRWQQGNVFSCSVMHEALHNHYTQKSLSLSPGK
light: DIQLTQSPSSLSASVGDRVTITCRASEKVDSFGNSFMHWYQQKPGKAPKLLIYLTSNLDSGVPSRFSGSGSRTDFTLTISSLQPEDFATYYCQQNNEDPYTFGQGTKLEIKRTVAAPSVFIFPPSDEQLKSGTASVVCLLNNFYPREAKVQWKVDNALQSGNSQESVTEQDSKDSTYSLSSTLTLSKADYEKHKVYACEVTHQGLSSPVTKSFNRGEC
notes: also called mAb 28
Regarding B5, the Kd in test [9] came out at 570 pM; in [10], 5560 pM; in test [4], 5600 pM; in test [7] it was 570 pM.

B6: Humanized anti-ILT3 mAb (52B8 VH1 M64V/VL5) IgG4 S228P/Kappa (antibody)
heavy: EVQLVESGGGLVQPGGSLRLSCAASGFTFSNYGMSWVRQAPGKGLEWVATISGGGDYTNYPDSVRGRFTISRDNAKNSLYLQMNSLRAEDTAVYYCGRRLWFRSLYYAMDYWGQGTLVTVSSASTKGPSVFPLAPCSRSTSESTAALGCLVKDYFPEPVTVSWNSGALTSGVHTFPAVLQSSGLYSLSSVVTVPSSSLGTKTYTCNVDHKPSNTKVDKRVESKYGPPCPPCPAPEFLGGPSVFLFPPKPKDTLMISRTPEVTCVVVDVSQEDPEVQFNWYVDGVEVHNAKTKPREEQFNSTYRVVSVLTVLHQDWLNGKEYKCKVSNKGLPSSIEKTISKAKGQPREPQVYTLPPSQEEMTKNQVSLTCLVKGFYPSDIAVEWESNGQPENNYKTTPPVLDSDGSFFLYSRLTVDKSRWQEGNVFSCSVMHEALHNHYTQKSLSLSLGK
light: B5 light with R72G
notes: also called mAb 30; humanized 52B8 VH1 M64V/VL5
Regarding B6, the dissociation constant Kd turned out to be 600 pM in test [9], 4800 pM in [10], 4800 pM in [4] and 600 pM in test [7].

B7: Humanized anti-ILT3 mAb (52B8 VH1 M64V/VL6) IgG4 S228P/Kappa (antibody)
heavy: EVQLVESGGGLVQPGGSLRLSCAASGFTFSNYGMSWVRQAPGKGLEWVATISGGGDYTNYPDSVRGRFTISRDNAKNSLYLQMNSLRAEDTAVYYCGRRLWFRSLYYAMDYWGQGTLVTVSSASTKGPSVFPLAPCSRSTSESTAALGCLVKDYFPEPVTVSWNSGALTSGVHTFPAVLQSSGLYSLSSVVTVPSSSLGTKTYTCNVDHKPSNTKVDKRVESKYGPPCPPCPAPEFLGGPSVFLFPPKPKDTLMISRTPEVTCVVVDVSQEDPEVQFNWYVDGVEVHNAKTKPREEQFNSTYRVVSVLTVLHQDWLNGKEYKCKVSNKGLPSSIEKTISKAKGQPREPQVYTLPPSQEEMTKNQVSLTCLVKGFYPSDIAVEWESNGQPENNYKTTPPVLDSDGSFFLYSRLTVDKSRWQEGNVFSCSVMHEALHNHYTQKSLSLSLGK
light: B5 light with L4M
notes: also called mAb 31
In the case of B7, the Kd stood at 880 pM in test [9], 10300 pM in test [10], 10000 pM in [4] and 880 pM in [7].

B8: Humanized anti-ILT3 mAb ((52B8 VH1 M64V/VL5) L234A L235A D265S) IgG1/Kappa (antibody)
heavy: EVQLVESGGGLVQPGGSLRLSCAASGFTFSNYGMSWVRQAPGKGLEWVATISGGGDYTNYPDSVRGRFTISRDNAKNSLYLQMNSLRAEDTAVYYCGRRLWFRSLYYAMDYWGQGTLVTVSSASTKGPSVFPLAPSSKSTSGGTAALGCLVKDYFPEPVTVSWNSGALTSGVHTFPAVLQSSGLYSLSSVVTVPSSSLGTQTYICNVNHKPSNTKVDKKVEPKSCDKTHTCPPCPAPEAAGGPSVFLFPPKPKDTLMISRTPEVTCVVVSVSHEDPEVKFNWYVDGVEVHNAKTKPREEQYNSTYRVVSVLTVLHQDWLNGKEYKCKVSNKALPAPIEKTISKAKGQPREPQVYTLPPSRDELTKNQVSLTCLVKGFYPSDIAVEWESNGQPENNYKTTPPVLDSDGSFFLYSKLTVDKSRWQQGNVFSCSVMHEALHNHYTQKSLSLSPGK
light: B5 light with R72G
notes: also called mAb 26
As for B8, the Kd came to 610 pM in test [9], 4900 pM in [10], 4900 pM in test [4] and 610 pM in test [7].

B9: Humanized anti-ILT3 mAb (52B8 VH1 M64V/VL8) IgG4 S228P/Kappa (antibody)
heavy: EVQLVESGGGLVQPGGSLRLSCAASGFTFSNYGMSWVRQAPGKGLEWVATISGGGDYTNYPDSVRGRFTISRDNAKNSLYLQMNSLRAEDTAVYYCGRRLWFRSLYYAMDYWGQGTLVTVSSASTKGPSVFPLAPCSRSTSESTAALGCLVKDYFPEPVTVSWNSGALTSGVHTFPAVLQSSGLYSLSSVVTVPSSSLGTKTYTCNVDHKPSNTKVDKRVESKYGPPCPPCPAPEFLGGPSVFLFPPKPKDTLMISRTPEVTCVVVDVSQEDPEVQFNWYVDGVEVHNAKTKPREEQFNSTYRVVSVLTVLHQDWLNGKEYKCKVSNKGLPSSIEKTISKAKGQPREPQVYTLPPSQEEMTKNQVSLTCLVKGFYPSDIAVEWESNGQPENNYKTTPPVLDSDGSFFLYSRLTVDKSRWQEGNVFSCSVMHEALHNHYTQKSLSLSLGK
light: B5 light with S64A
notes: also called mAb 33
For B9, the Kd came out at 540 pM in test [9], 5590 pM in test [10], 5600 pM in test [4] and 540 pM in [7].

B10: Humanized anti-ILT3 mAb (52B8 VH1 M64V/VL7) IgG4 S228P/Kappa (antibody)
heavy: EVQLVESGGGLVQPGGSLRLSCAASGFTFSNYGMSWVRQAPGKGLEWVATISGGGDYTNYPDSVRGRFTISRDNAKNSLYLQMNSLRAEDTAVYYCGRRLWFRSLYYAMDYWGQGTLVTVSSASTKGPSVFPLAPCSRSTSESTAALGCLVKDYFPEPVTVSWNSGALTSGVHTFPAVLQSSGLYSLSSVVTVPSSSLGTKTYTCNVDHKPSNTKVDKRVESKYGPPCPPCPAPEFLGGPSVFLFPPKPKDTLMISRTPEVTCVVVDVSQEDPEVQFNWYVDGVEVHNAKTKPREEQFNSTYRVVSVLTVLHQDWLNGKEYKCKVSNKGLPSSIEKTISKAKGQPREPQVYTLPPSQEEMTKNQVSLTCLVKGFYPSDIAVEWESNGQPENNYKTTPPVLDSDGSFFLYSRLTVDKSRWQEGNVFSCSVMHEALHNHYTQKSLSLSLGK
light: B5 light
notes: also called mAb 32
For the molecule B10, the Kd in test [9] stood at 530 pM; in test [10], 5610 pM; in test [4], 5600 pM; in [7] it was 530 pM.

B11: Humanized anti-ILT3 mAb ((52B8 VH1 M64V/VL6) L234A L235A D265S) IgG1/Kappa (antibody)
heavy: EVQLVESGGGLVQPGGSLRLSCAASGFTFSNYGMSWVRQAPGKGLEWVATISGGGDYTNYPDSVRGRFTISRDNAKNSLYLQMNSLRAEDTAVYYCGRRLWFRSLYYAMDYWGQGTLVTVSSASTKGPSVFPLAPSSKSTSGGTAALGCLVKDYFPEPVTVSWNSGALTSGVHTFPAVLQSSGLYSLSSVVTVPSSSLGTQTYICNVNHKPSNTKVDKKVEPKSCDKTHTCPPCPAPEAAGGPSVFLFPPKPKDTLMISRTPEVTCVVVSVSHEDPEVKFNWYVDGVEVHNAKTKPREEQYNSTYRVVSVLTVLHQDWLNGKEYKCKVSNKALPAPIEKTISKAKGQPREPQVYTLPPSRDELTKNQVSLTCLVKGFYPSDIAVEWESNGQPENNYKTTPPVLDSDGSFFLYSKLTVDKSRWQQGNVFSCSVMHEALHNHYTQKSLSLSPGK
light: B5 light with L4M
notes: also called mAb 27
Turning to B11, the Kd in test [9] is 920 pM; in test [10] it was 10400 pM; in [4] it was 10000 pM; in test [7] it was 920 pM.

B12: Humanized anti-ILT3 mAb ((52B8 VH1 M64V/VL8) L234A L235A D265S) IgG1/Kappa (antibody)
heavy: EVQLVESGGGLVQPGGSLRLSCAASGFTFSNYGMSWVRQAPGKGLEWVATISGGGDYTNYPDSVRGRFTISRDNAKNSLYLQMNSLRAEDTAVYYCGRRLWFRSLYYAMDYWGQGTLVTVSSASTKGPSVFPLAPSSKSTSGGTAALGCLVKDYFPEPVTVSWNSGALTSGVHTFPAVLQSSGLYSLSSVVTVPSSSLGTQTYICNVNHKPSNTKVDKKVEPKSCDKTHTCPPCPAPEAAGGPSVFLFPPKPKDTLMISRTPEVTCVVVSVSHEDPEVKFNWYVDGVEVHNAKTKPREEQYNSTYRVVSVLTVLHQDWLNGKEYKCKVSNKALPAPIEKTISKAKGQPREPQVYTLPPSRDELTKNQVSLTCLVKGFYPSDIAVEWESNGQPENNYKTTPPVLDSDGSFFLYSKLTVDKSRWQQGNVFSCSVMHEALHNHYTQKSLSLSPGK
light: B5 light with S64A
notes: also called mAb 29
With B12, the Kd in test [9] came to 560 pM; in test [10], 5740 pM; in [4] it was 5700 pM; in test [7] it was 560 pM.

B13: Mouse anti-ILT3 mAb 11D1 IgG2b/Kappa (antibody, V domains shown)
VH: QVQLQQSGAELMKPGASVKISCKATGYTFRTYWIEWVKQRPGHGLEWIGEILPGNGNTHFNENFKDKATFTADTSSNAAYMQLSSLTSEDSAVYYCVRRLGRGPFDFWGQGTTLTVSS
VL: DIQMTQSPSSLSVSLGGKVTITCKASQDINEYIGWYQRKPGKGPRLLIHYTSTLQSGIPSRFSGSGSGRDYSLSISNLEPEDIATYYCLQYANPLPTFGGGTKLEIK
notes: Mouse IgG2b/Kappa; also called p11D1; LB182.11D1.1A1
As to B13, the values for the EC50 in test [3] and in [5] were 50.5 µg/mL and 0.0505 µg/mL, respectively. The same molecule yielded a Kd in [6] of 14100 pM.

B14: Rat anti-ILT3 mAb 17H12 IgG1/Kappa (antibody, V domains shown)
VH: EVQLVESGGGLVQPGRSMKLSCAASGFTFSNFDMAWVRQAPTRGLEWVSSITYDGGSTSYRDSVKGRFTISRDNAKGTLYLQMDSLRSEDTATYYCTTVESIATISTYFDYWGQGVMVTVSS
VL: DIVLTQSPALAVSLGQRATISCRASQSVSMSRYDLIHWYQQKPGQQPKLLIFRASDLASGIPARFSGSGSGTDFTLTINPVQADDIATYYCQQTRKSPPTFGGGTRLELK
notes: Rat IgG1/Kappa; also called p17H12; LB190.17H121A1
In the case of B14, the EC50 is 139 µg/mL in [3] and 0.139 µg/mL in [5]. This molecule yielded a Kd in test [6] of 592 pM. In test [8], the binding result is listed as “no binding”.

B15: Humanized anti-ILT3 mAb (52B8 VH1 M64V/VL2) IgG4 S228P/Kappa (antibody)
heavy: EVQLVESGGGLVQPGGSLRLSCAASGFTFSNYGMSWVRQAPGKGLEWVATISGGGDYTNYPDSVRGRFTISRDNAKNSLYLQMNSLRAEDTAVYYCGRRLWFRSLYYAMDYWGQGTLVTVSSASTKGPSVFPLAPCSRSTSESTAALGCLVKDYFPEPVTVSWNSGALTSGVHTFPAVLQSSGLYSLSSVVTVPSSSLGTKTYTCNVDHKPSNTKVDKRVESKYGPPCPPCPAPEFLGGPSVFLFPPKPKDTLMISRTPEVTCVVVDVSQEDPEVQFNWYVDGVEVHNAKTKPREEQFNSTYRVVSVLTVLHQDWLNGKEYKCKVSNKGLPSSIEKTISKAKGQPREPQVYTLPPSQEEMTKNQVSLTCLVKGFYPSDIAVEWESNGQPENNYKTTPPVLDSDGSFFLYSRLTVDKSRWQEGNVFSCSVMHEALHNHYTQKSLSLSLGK
light: DIVLTQSPDSLAVSLGERATINCRASEKVDSFGNSFMHWYQQKPGQPPKLLIYLTSNLDSGVPDRFSGSGSGTDFTLTISSLQAEDVAVYYCQQNNEDPYTFGQGTKLEIKRTVAAPSVFIFPPSDEQLKSGTASVVCLLNNFYPREAKVQWKVDNALQSGNSQESVTEQDSKDSTYSLSSTLTLSKADYEKHKVYACEVTHQGLSSPVTKSFNRGEC
notes: also called mAb 10
Regarding B15, the EC50 in [1] was 0.148 µg/mL; in test [3], 0.085 µg/mL. The Kd was 720 pM in test [9], 8770 pM in test [10], 22000 pM in [4] and 1100 pM in test [7].

B16: Humanized anti-ILT3 mAb ((52B8 VH1 M64V/VL2) L234A L235A D265S) IgG1/Kappa (antibody)
heavy: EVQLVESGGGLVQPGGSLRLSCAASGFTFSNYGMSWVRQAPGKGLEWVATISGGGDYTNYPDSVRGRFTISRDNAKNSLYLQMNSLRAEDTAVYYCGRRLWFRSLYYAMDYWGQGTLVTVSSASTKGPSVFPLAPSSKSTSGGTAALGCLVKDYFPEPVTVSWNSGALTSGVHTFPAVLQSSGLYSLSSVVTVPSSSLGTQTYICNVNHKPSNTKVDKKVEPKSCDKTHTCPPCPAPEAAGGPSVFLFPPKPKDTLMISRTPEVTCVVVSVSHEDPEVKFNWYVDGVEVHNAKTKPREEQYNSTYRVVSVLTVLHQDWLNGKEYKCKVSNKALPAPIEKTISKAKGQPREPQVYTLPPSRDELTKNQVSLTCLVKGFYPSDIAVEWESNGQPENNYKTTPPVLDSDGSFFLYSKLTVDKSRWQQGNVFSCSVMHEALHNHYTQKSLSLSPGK
light: B15 light
notes: also called mAb 25
As to B16, the Kd in [9] is 740 pM; in test [10], 8660 pM; in [4], 8700 pM; in test [7], 740 pM.

B17: Mouse anti-ILT3 mAb 1G12 IgG2a/Kappa (antibody, V domains shown)
VH: QVQMQQSGTELMKPGASMKISCKATGYTFSTYWIQWIKQRPGHGLEWIGEILPGSGTTNYNENFKGKATFSADTSSNTAYIHLSSLTSEDSAVFYCARRLGRGPFDYWGQGTTLTVSS
VL: DIQMTQSPSSLSASLGGKVTITCEASQDINKHIDWYQHQPGRGPSLLIHYASILQPGIPSRFSGSGSGRDYSFSITSLEPEDIATYYCLQYDNLLPTFGGGTKLEIK
notes: Mouse IgG2a/Kappa; also called p1G12; LB182.1G12.1B1
For the molecule B17, the EC50 in test [3] came to 39.2 µg/mL; in [5], 0.0392 µg/mL. In test [6], this molecule came in with a Kd of 16900 pM. Also, in test [8], the binding result is “no binding”.
